This note sets out measurements from the RNAGym collection of RNA variant scans (doi:10.7554/elife.80360).

To fix the notation:
B1: Hairpin Ribozyme (parent)
chain: GUCCUCUUUCACGUGCGCGUGAAAGAGAGAAGUGAACCAGAGAAACACACGUUGUGGUAUAUUACCUGGUA

This data set covers variants of B1. Put plainly: self-cleavage, relative activity (ratio to wild type); higher = more cleavage; co-transcriptional.
With U8A A36U, the self-cleavage stood at 0.473. The same measure for U8A A36G: 0.714; for U8A C12G: 0.552. As for U7A A43G, the figure is 0.222; as for U7G G19A, 0.618; as for U8C G42C, 0.187. U8C U55C: the self-cleavage came to 0.132. As to U7G A45C, the self-cleavage amounted to 0.0973.

U7G A45G: the self-cleavage was 0.102. As for U8C A47G, the figure is 0.147; as for U8A G27U, 0.208. In the case of U7A U55G, the self-cleavage worked out at 0.205.

U7A U55A: the self-cleavage came to 0.152. As for U7A U55C, the figure is 0.175. As for U7A A61C, the figure is 0.188; as for U7G U52G, 0.779.

Consider U8C A23G, for which the self-cleavage came out at 0.709. On to U8C U53A, for which the self-cleavage came to 0.674. Turning to U8C U53G, the self-cleavage is 0.509. As for U8A A71C, the figure is 1.23; as for U8A U20G, 0.711; as for U7C G68A, 0.339. As for U7C G68U, the figure is 0.171; as for C6U U70A, 0.699; as for U8A A59G, 0.215. For U7A G13A, the self-cleavage came to 0.962. The same measure for U7C C16U: 1; for U8C G27U: 0.158. The same measure for U7C U58C: 0.775. In the case of U8C U20C, the self-cleavage was determined as 0.184. For the variant U7G U60C, the self-cleavage was 1.12. As for U7C U20G, the figure is 0.751; as for U7A G25C, 0.402. The same measure for U7C A31C: 0.112. As to U7G U20C, the self-cleavage worked out at 0.798.

U8C C46G: the self-cleavage came to 0.188. As for U8A U63G, the figure is 0.117. As for U8C C12A, the figure is 0.164.

For U8C C12U, the self-cleavage is 0.566. The same measure for U7A G51A: 0.977; for U7C C65U: 0.254; for U7A A49G: 0.49.

On to U7A A49U, for which the self-cleavage turned out to be 0.16. C6U U67C: the self-cleavage amounted to 0.222. As for C6U U67A, the figure is 0.151. As to U8A G17U, the self-cleavage stood at 0.79. Turning to U7C G17C, the self-cleavage came out at 0.527. As for U8G A39U, the figure is 0.288; as for U8G A39C, 0.406; as for U7A U9A, 0.666. As for U7A U9G, the figure is 0.579; as for U7A U9C, 0.714. Consider U7G U14A, for which the self-cleavage was determined as 0.666.

On to U7G U14G, for which the self-cleavage was determined as 0.729. The same measure for U7G U14C: 0.701.

For the variant U7C G69U, the self-cleavage is 0.179.

For the variant U7C G57U, the self-cleavage amounted to 0.213. As for U7C C12A, the figure is 0.516; as for U7G G29U, 0.136; as for U8C U14C, 0.802. U8C U14A: the self-cleavage turned out to be 0.51. The same measure for U7G A31G: 0.503. As for U7G A31U, the figure is 0.216. The same measure for U7G C46A: 0.0994; for U8C A22U: 0.344; for U7A A30C: 0.121.

With U7A A30U, the self-cleavage is 0.0668. As for U8A G68C, the figure is 0.215. The same measure for U7A U52A: 0.992; for U8C U70A: 0.631; for U8C U70C: 0.651. The same measure for U8G A11C: 0.512; for U8G A11U: 0.67; for U7G U62A: 0.101. As to U7G U62C, the self-cleavage stood at 0.0811. As for U7C A47C, the figure is 0.205; as for U7C A47U, 0.0995. The same measure for U7C G13C: 0.518; for U7A A35G: 0.796. As for U7A G17A, the figure is 0.865; as for U7A G32C, 0.143; as for U7A U62G, 0.0626. For U7A A36C, the self-cleavage worked out at 0.573. For the variant U7A C18U, the self-cleavage is 0.8. As for U8C C65U, the figure is 0.166; as for U7G A71C, 1.35. The same measure for U7G A71G: 1.06.

In the case of U7A G29A, the self-cleavage was determined as 0.099.

Regarding U7A G29U, the self-cleavage stood at 0.178. Turning to U8C A26C, the self-cleavage came to 0.316. The same measure for U8C A26G: 0.544; for U8A G15U: 0.888. The same measure for U7G G42C: 0.316; for U8A A28G: 0.684. As for U8C G57C, the figure is 0.172.

For the variant U7G G56U, the self-cleavage came out at 0.0768.

Regarding U8A A23C, the self-cleavage came out at 0.712. For the variant U8A A23G, the self-cleavage was 0.808. Take U7G U67C: the self-cleavage came to 0.217. The same measure for U7G U67A: 0.238; for U8C G15A: 0.743; for U7A C38U: 0.329. As for U7C C66U, the figure is 0.542; as for U7G C18U, 1.07; as for U7G C18G, 0.739. Take U8C A28U: the self-cleavage came to 0.693. Regarding U8C A28C, the self-cleavage is 0.691. As for U7A G69C, the figure is 0.196.

For the variant U7A G69A, the self-cleavage is 0.315. As for U8A U53G, the figure is 0.59; as for U8A U53A, 0.763. As for U7A U58G, the figure is 0.775. For the variant U7A U58C, the self-cleavage came out at 1.02. The same measure for U7G U9A: 0.68. As for U7G U9G, the figure is 0.599; as for U7G G25U, 0.17. As for U7G G25C, the figure is 0.253; as for U8C C48U, 0.272. For U8C C48G, the self-cleavage stood at 0.155. As for U8A A31G, the figure is 0.448; as for U8A A31U, 0.135; as for U7C G40C, 0.156. As for U8A C48G, the figure is 0.107. The same measure for U8A C48A: 0.111; for U8A C48U: 0.117; for U8G A23U: 0.738. For U8C A36U, the self-cleavage amounted to 0.393. As for U8C A36C, the figure is 0.671; as for U7G A41C, 0.863.

Turning to U7G A41G, the self-cleavage was determined as 0.946. Turning to U7G A41U, the self-cleavage came to 1.12. Regarding U8C G56A, the self-cleavage is 0.153. As for U7A A41U, the self-cleavage worked out at 1.28. The same measure for U8C C38A: 0.215; for U7A G19U: 0.581. With U7A G19C, the self-cleavage was 0.711.

As to U8C U33A, the self-cleavage was determined as 0.216. As for U8A A22U, the figure is 0.891. As for U7A G56A, the figure is 0.182; as for U8A C66A, 0.128. The same measure for U8A C66G: 0.101; for U8A C66U: 0.238; for U7A A71U: 0.814. In the case of U7A A71G, the self-cleavage stood at 0.895.

In the case of U8A A11U, the self-cleavage was found to be 0.619. For the variant U8A A11G, the self-cleavage was 0.772. As for U7A C66G, the figure is 0.146; as for U7G C12A, 0.732; as for U7G C12U, 0.753.

For U7C G21C, the self-cleavage was 0.962. As for U7A C37G, the figure is 0.342.

Turning to U7G A64C, the self-cleavage was found to be 0.24. On to U7G A64U, for which the self-cleavage was determined as 0.143. As for U7A A39G, the figure is 0.318; as for U8C U63C, 0.132; as for U8C A39C, 0.343. As for U7G U70C, the figure is 0.838; as for U7G U70G, 0.917; as for U7G G13A, 0.704. As for U7A C12G, the figure is 0.662; as for U8G A36G, 0.76; as for U7C G25U, 0.494. Regarding U7C G25A, the self-cleavage was 0.306.

Regarding U7G A26C, the self-cleavage is 0.0432. U8A A26U: the self-cleavage was 0.421. As for U8A A26C, the figure is 0.334; as for U7A A26G, 0.71.
